Data reported in patent publication JP2022109630A (dated 2022).

Legend:
Assay in all cases: ELISA, immobilised recombinant L7/L12 (10 ng/mL), antibody 10 ug/mL
[1] = target: T1, 黄色ブドウ球菌(SA)のリボソームタンパク質L7/L12 (黄色ブドウ球菌 (Staphylococcus aureus))
T1 construct: also called Staphylococcus aureus ribosomal protein L7/L12; SA L7/L12

緑膿菌(PA)のリボソームタンパク質L7/L12 = target: T2, 緑膿菌(PA)のリボソームタンパク質L7/L12 (緑膿菌 (Pseudomonas aeruginosa))
T2 construct: also called Pseudomonas aeruginosa ribosomal protein L7/L12; PA L7/L12

[2] = target: T3, クレブシエラ・ニューモニエ(KP)のリボソームタンパク質L7/L12 (クレブシエラ・ニューモニエ (Klebsiella pneumoniae))
T3 construct: also called 肺炎桿菌; Klebsiella pneumoniae ribosomal protein L7/L12

[3] = target: T4, モラキセラ菌(MC)のリボソームタンパク質L7/L12 (モラキセラ菌 (Moraxella catarrhalis))
T4 construct: also called Moraxella catarrhalis ribosomal protein L7/L12; MC L7/L12

[4] = target: T5, 溶連菌(SPY)のリボソームタンパク質L7/L12 (溶連菌 (Streptococcus pyogenes))
T5 construct: also called Streptococcus pyogenes ribosomal protein L7/L12; SPY L7/L12

[5] = target: T6, 髄膜炎菌(NM)のリボソームタンパク質L7/L12 (髄膜炎菌 (Neisseria meningitidis))
T6 construct: also called Neisseria meningitidis ribosomal protein L7/L12; NM L7/L12

淋菌(NG)のリボソームタンパク質L7/L12 = target: T7, 淋菌(NG)のリボソームタンパク質L7/L12 (淋菌 (Neisseria gonorrhoeae))
T7 construct: also called Neisseria gonorrhoeae ribosomal protein L7/L12; NG L7/L12

[6] = target: T8, クラミジア・トラコマチス(CT)のリボソームタンパク質L7/L12 (クラミジア・トラコマチス (Chlamydia trachomatis))
T8 construct: also called Chlamydia trachomatis ribosomal protein L7/L12; CT L7/L12

[7] = target: T9, サルモネラ菌(SE)のリボソームタンパク質L7/L12 (サルモネラ菌 (Salmonella enteritidis))
T9 construct: also called Salmonella enteritidis ribosomal protein L7/L12; SE L7/L12

[8] = target: T10, リステリア・モノサイトゲネス(LM)のリボソームタンパク質L7/L12 (リステリア・モノサイトゲネス (Listeria monocytogenes))
T10 construct: also called Listeria monocytogenes ribosomal protein L7/L12; LM L7/L12

[9] = target: T11, カンピロバクター・ジェジュニ(CJ)のリボソームタンパク質L7/L12 (カンピロバクター・ジェジュニ (Campylobacter jejuni))
T11 construct: also called Campylobacter jejuni ribosomal protein L7/L12; CJ L7/L12

[10] = target: T12, 肺炎球菌(SP)のリボソームタンパク質L7/L12 (肺炎球菌 (Streptococcus pneumoniae))
T12 construct: also called Streptococcus pneumoniae ribosomal protein L7/L12; SP L7/L12

[11] = target: T13, インフルエンザ菌(HI)のリボソームタンパク質L7/L12 (インフルエンザ菌 (Haemophilus influenzae))
T13 construct: also called Haemophilus influenzae ribosomal protein L7/L12; HI L7/L12

[12] = target: T14, 肺炎マイコプラズマ(MP)のリボソームタンパク質L7/L12 (肺炎マイコプラズマ (Mycoplasma pneumoniae))
T14 construct: also called Mycoplasma pneumoniae ribosomal protein L7/L12; MP L7/L12

[13] = target: T15, 百日咳菌(BP)のリボソームタンパク質L7/L12 (百日咳菌 (Bordetella pertussis))
T15 construct: also called Bordetella pertussis ribosomal protein L7/L12; BP L7/L12

[14] = target: T16, 肺炎クラミジア(CP)のリボソームタンパク質L7/L12 (肺炎クラミジア (Chlamydia pneumoniae))
T16 construct: also called Chlamydia pneumoniae ribosomal protein L7/L12; CP L7/L12

Measured: absorbance at 450 nm

B1: 汎用性抗体C(CP141A190.1) (antibody, V domains shown)
VH: QVQLQQPGAELVKPGASVKLSCKTSGYNFTSNWIHWVKQRPGQGLEWIGEINPSNGRANYNEKFKNKATLTVDKSSSTAFMHLSSLTSEDSAVYFCSRGDFDEGFTYWGQGTLVTVSA
VL: QIVLTQSPAIMSASLGERVTMTCTASSNVNSDYLHWYQQKPGSSPRLWIYTTSNLASGVPTRFSGNGSGTSYSLTISSMEAEDAATYYCHQYHRSPRTFGGGTKLEIK
notes: also called CP141A190.1; general-purpose antibody C
≥ 0.3 absorbance (450 nm): all assays above

B2: 汎用性抗体A(PA51B2) (antibody, V domains shown)
VH: QVQLQQPGSVLVRPGASVKLSCKPSGYTFTGSWMHWTKQRPGQGLEWIGEIHPYSGNTNYNEKFRVKATLTVDTSSSTTYVDLSSLTSDDSAVYYCASGDFDAGFTYWGQGTLVTVSA
VL: DIVLTQSPASLAVSLGRRATISCKASQSVDYDGDSYMNWYQQKPGQPPKLLIYVASNLESGIPARFSGSGSGTDFTLNIHPVEEEDAATYYCQQTNEDPFTFGAGTKLELK
notes: also called PA51B2; general-purpose antibody A
≥ 0.3 absorbance (450 nm): all assays above
